Results from patent publication US20140044674A1.

Molecular target: IL-10R on freshly isolated human blood monocytes (human) (UniProt Q13651)
Test: cell-based or functional assay

Chain of IL-10R on freshly isolated human blood monocytes (human) (Q13651 22-578, chain 1 of 2): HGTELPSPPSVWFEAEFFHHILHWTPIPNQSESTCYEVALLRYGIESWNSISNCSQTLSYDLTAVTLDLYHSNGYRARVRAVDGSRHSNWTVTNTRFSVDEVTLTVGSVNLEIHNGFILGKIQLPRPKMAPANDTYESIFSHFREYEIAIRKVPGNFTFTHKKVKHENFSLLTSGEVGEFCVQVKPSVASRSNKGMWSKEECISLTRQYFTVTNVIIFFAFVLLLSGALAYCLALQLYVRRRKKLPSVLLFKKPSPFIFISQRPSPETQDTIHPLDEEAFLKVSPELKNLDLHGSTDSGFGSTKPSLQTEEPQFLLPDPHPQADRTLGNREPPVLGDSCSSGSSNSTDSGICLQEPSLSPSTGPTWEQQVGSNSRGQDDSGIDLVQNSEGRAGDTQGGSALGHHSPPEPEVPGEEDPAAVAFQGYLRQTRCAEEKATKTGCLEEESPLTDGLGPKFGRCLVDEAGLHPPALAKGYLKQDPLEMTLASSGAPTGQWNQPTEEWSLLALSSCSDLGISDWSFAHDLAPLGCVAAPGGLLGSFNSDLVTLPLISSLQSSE
Chain of IL-10R on freshly isolated human blood monocytes (human) (Q08334 20-325, chain 2 of 2, further chain): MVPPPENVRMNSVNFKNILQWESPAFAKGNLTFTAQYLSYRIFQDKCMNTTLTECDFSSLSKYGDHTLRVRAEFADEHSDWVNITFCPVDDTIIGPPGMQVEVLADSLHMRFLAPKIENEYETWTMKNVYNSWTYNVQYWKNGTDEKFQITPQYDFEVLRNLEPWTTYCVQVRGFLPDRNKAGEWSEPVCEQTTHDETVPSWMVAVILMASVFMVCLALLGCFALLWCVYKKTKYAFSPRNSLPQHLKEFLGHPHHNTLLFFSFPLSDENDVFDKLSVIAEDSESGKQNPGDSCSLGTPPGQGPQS

Question: How did the EC50 [nM] pSTAT3 induction, primary monocytes turn out when “recombinant wild type human IL-10 (from UniProt P22301 19-178) (ligand)” was run?
Answer: 0.017 nM

Question: What about the EC50 [nM] pSTAT3 induction, primary monocytes, Donor 1 of the same substance?
Answer: 0.029 nM

Question: What about the EC50 [nM] pSTAT3 induction, primary monocytes, Donor 2 of the same substance?
Answer: 0.019 nM

Question: What about the EC50 [nM] pSTAT3 induction, primary monocytes, Donor 3 of the same substance?
Answer: 0.021 nM
